Test results: patent US20230242902A1, “A HIGHLY ERROR-PRONE […] R[…] FOR TARGETED CONTINUOUS EVOLUTION IN VIVO” (The Regents of the University of California, priority 2017, published 2023)
Where “and” joins values, the source holds several entries; their conditions need not be identical. Equal values may be shown once.

Experiments:
Assay type in all cases: cell-based, S. cerevisiae
p1 = p1 copy number by p1-encoded mKate2 fluorescence
Outline: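 Copy number was inferred from p1-encoded mKate2 fluorescence in saturated OR-Y24 cultures (triplicate), calibrated linearly against qPCR of p1 leu2 relative to genomic LEU3.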

p1-encoded leu2 (Q180*) = test: qPCR measurement of p1-encoded leu2 (Q180*) copy number; conditions: qPCR-determined p1 copy number, OR-Y24 strains
Method: A calibration curve was established to correlate p1 copy number, determined via quantitative PCR (qPCR), with fluorescence of p1-encoded mKate2 (Table 1). Five TP-DNAP1 variants representing a wide range of copy numbers were transformed into ORY24 and passaged until w.t. p1 was displaced. The five OR-Y24 strains were grown to saturation, diluted 1:10,000 to mimic p1 fluctuation tests, and grown in triplicate 100 μL cultures and duplicate 40 mL cultures. 100 μL saturated cultures were subject to fluorescence measurement of mKate2 (ex/em=561 nm/620 nm, bandwidth=15 nm) on a flow cytometer (Invitrogen Attune NxT). Whole-cell DNA extracts were prepared from 40 mL cultures and used as templates for qPCR measurement of p1-encoded leu2 (Q180*), as described previously (Ravikumar et al., 2014). p1-encoded LEU2 was PCR amplified with qPCR-Leu2F and qPCR Leu2R; and genomic LEU3 was PCR amplified with qPCR-Leu3F and qPCR-Leu3R using SyBR Green (Fisher Scientific) master mix.

genomic URA3 locus = test: Fluctuation tests of genomically encoded URA3 in the presence of TP-DNAP2 variants (AR-Y436); conditions: TP-DNAP2 in trans, AR-Y436, (95% C.I.)
Method: Fluctuation tests using genomically encoded URA3 were performed in the presence of TP-DNAP2 variants to determine the genomic per-base substitution rates, similarly to previously described protocols (Lang and Murray, 2008, Genetics, 178:67-82). AR-Y292 derived strains harboring the appropriate TP-DNAP2 variant encoded on a CEN6/ARS4 vector (with a HIS3 marker) were grown in liquid SC medium lacking uracil and histidine until saturation. Each strain was diluted 1:5,000 into SC medium lacking histidine and aliquoted into 48 replicates of 200 μL each. Cultures were grown for 48 hours at 30° C. to reach saturation. Saturated cultures were washed with 400 μL 0.9% NaCl and resuspended in 420 μL 0.9% NaCl. 400 μL from each replicate was spot plated on pre-dried solid SC medium lacking histidine and supplemented with 5-FOA (1 g/L). The residual 20 μL from six replicates were pooled, diluted, and plated on solid YPD medium to determine cell titers. Plates were allowed to dry before incubation at 30° C. Colonies were counted on titer plates after 2 days, and on spot plates after 5 days of growth. The expected number of mutants (m) was calculated using the MSS maximum likelihood estimator method via the FALCOR tool, and corrected for partial plating, as described above. To determine per-base substitution rates, the corrected m was normalized to the average cell titer, the URA3 copy number (1 in haploid yeast), and the target size for 5-FOA resistance via substitutions in URA3 (104 bp). 95% confidence intervals were similarly scaled.
Like p1 replication by TP-DNAP1, p2 replication by TP-DNAP2 occurs in the cytoplasm via a protein-primed mechanism, making it likely that p2 replication is orthogonal to host genome replication. To test this, CEN6/ARS4 vectors lacking TP-DNAP2, or encoding codon optimized versions of TP-DNAP2^WT, TP-DNAP2^S370Q, or TP-DNAP2^Y424Q were transformed into AR-Y436. AR-Y436 contains wt p1 and p2, as well as an intact URA3 locus in the host genome. Genomic per-base substitution rates were determined via fluctuation tests based on the frequency of 5-FOA resistant clones arising from mutations in the genomic URA3 locus, as previously described (Ravikumar et al., 2014, Nature Chemical Biology, 10:175-177; Lang and Murray, 2008, Genetics, 178:67-82). The substitution rich spectrum of URA3-disabling mutations makes this assay ideal for detecting whether the elevated substitution rate of TP-DNAP2^S370Q or TP-DNAP2^Y424Q contributes to genomic mutation. No increase in the host genomic mutation rate was observed when error-prone variants of TP-DNAP2^S370Q and TP-DNAP2^Y424Q were present (Table 8).

B1: TP-DNAP1-4-2: TP-DNAP1 variant (L477V, L640Y, I777K, W814N), encoded by SEQ ID NO:11 (protein, listed as Kluyveromyces lactis)
chain: MDYKDKALNDLRNVYADFDSLPLDFRQILIKDRATLLQKEDVEKKILERQEDAKKYAEYLKQSEIPERISLPNIKRHKGVSISFEETSEDMVLEPRPFIFDGLNIRCFRRETIFSLKNKILNMVKESSSFKNVSRQSVSFMYFKIFNKGKVIASTKSVNIYEDKIDERLEDLCNNFDDVLKKIIDVTYGYESLFVSETYSYVIFYAKSIYFPQPRCVNNWGNNIPNILTFDSFKLFTANKNNVSCIKQCSRFLWQKDFNTLEEMIEYKNGNICIVTPQLHINDVRDIKSFNDIRLYSESPIKTFSVIDNTITYLFYFKEHLGVIFNITKSRHDRRVTKFSPLSKFSDVKNITVCFDIESYFDPEKESNQVNIPFICCASIIYNKVIGNIVDFEGRDCVAQMIEYVVDICGELNISSVELIAHNGGGYDFHYILSSMYNPAAIKNILIRNNSFISFNFAHDGVKFSVKDSYSFLLCSVANASKAFLNEETFKKTDFPHHDLKTADDLYKVYKEWSSVNTEINHVVEKEKLLITSEHIVNFTKNDKSKTLIEWSKDYCRNDVLVLSKVWLEFKNAVEDIFNCELVDQTMTLAGLSYKLFQANMPFDVELRHPNKEDYFNMREALIGGRCISVNGIYKDVLCYDVKSLYPASMAFYDQPYGSFKRVSSRPKDELGIYYVRVTPNRNNKSNFFPIRSHNKITYNNFEESTYIAWYTNVDIDIGLSEGHNIEYIPFDSYGNIGYSWSKKGKIFEKYIKDVLYKLKIKYEKQNNKVKRNVIKKIMNSLWGKFAQKWVNFEYFIKSEDDIDFESEEAYKINDTDFMLIKKIKESTYSSKPIQNGVFTLSWARYHMKSIWDAGAKEGAECIYSDTDSIFVHKEHFKKNAKFMLNGLKVPIIGSEVGQLELECEFDKLLCAGKKQYMGFYTYFQDGKPCIKEKKRFKGIPSNYIIPELYAHLLSGADKEAKIQFLKFRREWGSVKGYIENKTVKAT
Question: How did the p1 copy number (p1; sustained by TP-DNAP1 variant) turn out when B1 was run?
Answer: The p1 copy number was ~5.

Question: What about the “Average leu2 (Q180*) copy number per cell” value (p1-encoded leu2 (Q180*); L640Y, I777K, W614N) of the same molecule?
Answer: Its value is 16.9 and 15.6.

B2: w.t.: wild-type Kluyveromyces lactis DNA polymerase TP-DNAP1, SEQ ID NO:1 (protein, listed as Kluyveromyces lactis)
chain: MDYKDKALNDLRNVYADFDSLPLDFRQILIKDRATLLQKEDVEKKILERQEDAKKYAEYLKQSEIPERISLPNIKRHKGVSISFEETSEDMVLEPRPFIFDGLNIRCFRRETIFSLKNKILNMVKESSSFKNVSRQSVSFMYFKIFNKGKVIASTKSVNIYEDKIDERLEDLCNNFDDVLKKIIDVTYGYESLFVSETYSYVIFYAKSIYFPQPRCVNNWGNNIPNILTFDSFKLFTANKNNVSCIKQCSRFLWQKDFNTLEEMIEYKNGNICIVTPQLHINDVRDIKSFNDIRLYSESPIKTFSVIDNTITYLFYFKEHLGVIFNITKSRHDRRVTKFSPLSKFSDVKNITVCFDIESYFDPEKESNQVNIPFICCASIIYNKVIGNIVDFEGRDCVAQMIEYVVDICGELNISSVELIAHNGGGYDFHYILSSMYNPAAIKNILIRNNSFISFNFAHDGVKFSVKDSYSFLLCSLANASKAFLNEETFKKTDFPHHDLKTADDLYKVYKEWSSVNTEINHVVEKEKLLITSEHIVNFTKNDKSKTLIEWSKDYCRNDVLVLSKVWLEFKNAVEDIFNCELVDQTMTLAGLSYKLFQANMPFDVELRHPNKEDYFNMREALIGGRCISVNGIYKDVLCLDVKSLYPASMAFYDQPYGSFKRVSSRPKDELGIYYVRVTPNRNNKSNFFPIRSHNKITYNNFEESTYIAWYTNVDIDIGLSEGHNIEYIPFDSYGNIGYSWSKKGKIFEKYIKDVLYKLKIKYEKQNNKVKRNVIKIIMNSLWGKFAQKWVNFEYFIKSEDDIDFESEEAYKIWDTDFMLIKKIKESTYSSKPIQNGVFTLSWARYHMKSIWDAGAKEGAECIYSDTDSIFVHKEHFKKNAKFMLNGLKVPIIGSEVGQLELECEFDKLLCAGKKQYMGFYTYFQDGKPCIKEKKRFKGIPSNYIIPELYAHLLSGADKEAKIQFLKFRREWGSVKGYIENKTVKAT
Question: Which results are given for B2?
Answer: Fold-change of p1 copy number over w.t. (p1; G410 (w.t.) background): 1.0 ± 0.27 fold; Fold-change of p1 copy number over w.t. (p1; variant additionally carrying G410H): 1.53 ± 0.33 fold; Average leu2 (Q180*) copy number per cell (p1-encoded leu2 (Q180*)): 68.9 and 88.1

B3: WT: wild-type Kluyveromyces lactis DNA polymerase TP-DNAP2, SEQ ID NO:13 (protein, listed as Kluyveromyces lactis)
chain: MNDELAFLNSQIDDYSDDIEFLRTEVFRINRYSKSIYSLMKNSSKEAIKETIEFNKYGQEIHSKIKEKEISLIEAIKLMEKKYKYLRSLNKTKDKSKKKKIHTKDIETLKTIYKTKADFDIRNFKNAETFTYENYSLLIPSEKELIDLIPEIEEDYSYYFYVSLTITGPTIFGGVTRKVPIIDTYGDINKDFYNKIKENITKVLDRVPFYEEKESEIICKKVLITLTVNKWESIDKWYKNVKSKSKKFKDFTLFLASDTSKNCVQQCVEYLGGKWNTNYSLEKMIPQQKIVTYIPLLMDIQYVQSMEDLISDFDEPNTDCKNIARLLKWNGHMGVITKIDKDVKINRIQRKRIIDVENKEVKEVFFDIESFSDETKHQIPYLICWSYLGELYYRTGKNCIKEFVEEILSYNVDIILYAWYGSGYDYQHVLPYMKSKCIKDKYIIKNNMITYGELYYENAIIYLKDPYLFILTSLDKASKAFNVINKGEFPHSIIHSWEDLNKILPNWVKIQKRMIEYKDDNKLNIYYKNIEIFENDRNYNTILENAIEYCKVDVLAMEKVWIKFKKLLEKNLNITVSVKTFTLSQLSMKIMESKLPKYVKLYVPTLEEYSKIRNAIYGGRVISKNGIYEENIVYADVVSLYPSAMKLLKHSYGKPKLVDYIDFEKHGIYRVTLLNKHDQEPKNYLNFVPRRINRKLTWEWFKIHEGWYHTYDLIIAKSEGFDIYCHEGFEYPEKDYIFNDFIDTLYSMKETHTACSCEEQPCPIRMVAKIALNGGGYGKFVQKPIDKEIYIVKRDVVAGECDKLQENENGEICIGKRLVKRPLFYNLDSENYDKMIIEKEDEPIYSTQCGISILSASRYRLYKLCKQFENIDIIYSDTDSIFVKQKSVDWELFKSKCGSELGQLDSTIDDTKNAIISKMYIGGAKMYAFEYLNNKNKLITKLHCKGVPNYMLSLNQFKYLMESPDNTIAYKFEIIRRKLVNVITKDLIKDIKQT
Question: With B3 as the molecule, how does the “per-base substitution rate at genomic URA3 locus” value (genomic URA3 locus) read?
Answer: The value was 2.2 (1.2-3.4) ×10^−10.
